Tested on: CC(=O)O[C@H]1C(=O)[C@@]2(C)[C@H]([C@H](OC(=O)c3ccccc3)[C@]3(O)C[C@H](OC(=O)[C@H](O)[C@@H](NC(=O)c4ccccc4)c4ccccc4)C(C)=C1C3(C)C)[C@]1(OC(C)=O)CO[C@@H]1C[C@@H]2O
Assay: TP_TRANSPORTER: uptake in MDR1-expressing MCF7 cells
Assay type: functional, cell-based

For “ATP-dependent translocase ABCB1 (Homo sapiens)”, the Km was 0.014 µM.

From ChEMBL document CHEMBL2074331, “Kinetics of P-glycoprotein-mediated efflux of paclitaxel” (J Pharmacol Exp Ther, 2001)
